The values below come from patent US20090004206A1 (ALETHIA BIOTHERAPEUTICS, published 2009).

The target in this assay is T1, Flag-tagged mouse v-ATPase a4 subunit fragment (amino acids 1-388) (mouse, UniProt Q920R6 1-388).
T1 construct: range 1-388; Expressed in 293FT cells from pCMX-Flag/v-ATPase-a4 and used as cell lysate; also called Flag-tagged a4; not shown: Flag tag of vector pCMX-Flag
Put plainly: GST pull-down from 293FT lysate, anti-Flag Western blot. From the text:
ID. NO. 89 (d2) (SEQ ID NO.:154) was cloned into the prokaryotic expression vector, pGEX-2T (Pharmacia, GE Healthcare), expressed as a GST fusion protein in E. coli and purified with glutathione beads. In parallel, cDNA fragments of mouse v-ATPase-a3 (amino acids 1-385) and v-ATPase a4 (amino acids 1-388) were cloned into the eukaryotic expression vector, pCMX-Flag in order to express a Flag-tagged a3 subunit or a4 subunit in mammalian cells. The pCMX-Flag/v-ATPase-a3 and pCMX-Flag/v-ATPase-a4 recombinant plasmids were transfected in 293FT cells and cell lysates were generated in which, the v-ATPase-a3 and v-ATPase-a4 FLAG-tagged polypeptides were readily detected with an anti-Flag antibody (FIG. 21B, II, upper panel).
In order to measure the interaction between d2 (SEQ. ID. NO. 89) and a3 or a4, equal amounts of 293FT lysates containing either Flag-tagged a3 or a4 were incubated with purified GST or GST-d2 at 4° C. for 90 minutes under mild agitation. After washing, the protein mixes were separated on a SDS-PAGE and transferred to PVDF membrane. […] Clearly, only the a3 fragment could be detected in the GST-d2 reactions compared to the GST reactions indicating a specific interaction between d2 and a3 (FIG. 21B, I-a3, upper panel) but not between d2 and a4 (FIG. 21B, I-a4, upper panel). […]

T1 sequence (Q920R6 1-388): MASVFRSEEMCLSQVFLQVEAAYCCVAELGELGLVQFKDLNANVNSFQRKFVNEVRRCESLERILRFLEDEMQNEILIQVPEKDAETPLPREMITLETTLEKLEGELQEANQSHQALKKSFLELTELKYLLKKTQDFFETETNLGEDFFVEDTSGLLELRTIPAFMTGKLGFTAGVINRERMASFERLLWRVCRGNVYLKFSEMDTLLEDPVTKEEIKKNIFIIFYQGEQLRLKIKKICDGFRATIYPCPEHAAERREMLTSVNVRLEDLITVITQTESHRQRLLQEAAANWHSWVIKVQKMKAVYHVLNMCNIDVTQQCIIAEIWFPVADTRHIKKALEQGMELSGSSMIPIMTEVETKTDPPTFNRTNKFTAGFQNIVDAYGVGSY

B1: GST-d2 (GST fusion protein of the human v-ATPase d2 subunit, polypeptide SEQ ID NO.:154 encoded by SEQ. ID. NO. 89) (other)
chain: not shown
notes: also called AB0179 human orthologue; not shown: glutathione S-transferase (GST) tag of the prokaryotic expression vector pGEX-2T (Pharmacia, GE Healthcare)
Turning to B1, the binding result was “no binding”.
